According to the RNAGym collection of RNA variant scans (doi:10.1021/acssynbio.7b00057):

B1: Pistol ribozyme (parent)
chain: GGGUCGUUGUUCCAUAAUCGCGUGGAUAUGGCACGCAAGUUUCUACCGGGCACCGUAAAUGUCCGACUGGAGCCGUUCGGGCGGCUAUAAACAGACCUCAGGCCCGAAGCGUGGCGGCACCUGCCGCCGGUGGUAAAAAAGAUCGGAAGAGCACACGUCU

Variants of: B1
Experiment: aptazyme ON/OFF ratio, guanine; higher = stronger switching; co-transcriptional cleavage with and without guanine

Variant	aptazyme ON/OFF ratio
U7C G9A U10C U11A C12G	1.14
U7C G9A U10C U11A C12U	1.34
U7C C12U C13A	1.55
U7C C12U C13U	1.05
U7C C12U C13G	1.28
U7C G9A U10C C12U C13U	1.14
U7C G9A U10C C12U C13G	1.16
U7C G9A U10C C12U C13A	1.2
U7A U11G C12G C13A	1.13
U7A U11G C12G C13G	1.42
U7A U11G C12G C13U	1.23
U7C G9A U10C U11C C13U	1.03
U7C G9A U10C U11C C13G	1.02
U7C G9A U10C U11C C13A	1.01
U7A U11A C12G C13U	1.24
U7A U11A C12G C13A	1.08
U7A U11A C12G C13G	1.14
U7C G9A U10A U11A	1.19
U7C G9A U10A U11G	1.27
U7C G9A U10A U11C	1.09
U7A U10G U11G C12G C13A	1.11
U7A U10G U11G C12G C13G	1.28
U7A U10G U11G C12G C13U	1.22
U7C G9A U10G U11G C12A	1.16

Variant	aptazyme ON/OFF ratio
U7C G9A U10G U11G C12G	1.23
U7C G9A U10G U11G C12U	1.28
U7C C12G C13U	1.43
U7C C12G C13G	1.17
U7C C12G C13A	1.18
U7C G9A U10C U11G C12U C13G	1.34
U7C G9A U10C U11G C12U C13U	1.32
U7C G9A U10C U11G C12U C13A	1.31
U7C G9A U10G U11C C12A C13A	1.2
U7C G9A U10G U11C C12A C13U	1.15
U7C G9A U10G U11C C12A C13G	1.11
U7C G9A U10A U11G C12U C13U	1.27
U7C G9A U10A U11G C12U C13A	1.16
U7C G9A U10A U11G C12U C13G	1.13
U7C G9A U10G U11A C12U C13U	1.18
U7C G9A U10G U11A C12U C13G	1.14
U7C G9A U10G U11A C12U C13A	1.05
U7C G9A U10A U11A C12U C13A	1.18
U7C G9A U10A U11A C12U C13U	1.19
U7C G9A U10A U11A C12U C13G	1.25
U7A U10G U11C C12U	1.09
U7A U10G U11C C12G	1.64
U7A U11G C12U	1.22
U7A U11G C12A	1.16

Variant	aptazyme ON/OFF ratio
U7A U11G C12G	1.27
U7C G9A U11C C12A C13A	1.16
U7C G9A U11C C12A C13U	1.15
U7C G9A U11C C12A C13G	1.12
U7C G9A U11C C12U C13U	1.11
U7C G9A U11C C12U C13G	1.02
U7C G9A U11C C12U C13A	1.17
U7A U11A C12A	1.41
U7A U11A C12U	1.26
U7A U11A C12G	1.2
U7A U11G C13U	1.04
U7A U11G C13G	1.05
U7A U11G C13A	1.03
U7C G9A U10G C12U C13G	1.17
U7C G9A U10G C12U C13A	1.2
U7C G9A U10G C12U C13U	1.11
U7C G9A U10A U11G C12G C13U	1.11
U7C G9A U10A U11G C12G C13A	1.12
U7C G9A U10A U11G C12G C13G	1.08
U7C G9A U10G U11A C12A	1.32
U7C G9A U10G U11A C12G	1.21
U7C G9A U10G U11A C12U	1.05
U7C G9A U10G C12U	1.33
U7C G9A U10G C12A	1.15

Variant	aptazyme ON/OFF ratio
U7C G9A U10G C12G	1.28
U7A U11C C12U C13G	1.38
U7A U11C C12U C13U	1.38
U7A U11C C12U C13A	1.27
U7C G9A C13A	1.05
U7C G9A C13U	1.17
U7C G9A C13G	1.03
U7A U11C C12G C13U	1.23
U7A U11C C12G C13G	1.16
U7A U11C C12G C13A	1.3
U7C G9A U11C	1.05
U7C G9A U11A	1.33
U7C G9A U11G	1.37
U7C G9A U10A U11C C12U C13G	1.05
U7C G9A U10A U11C C12U C13A	1.24
U7C G9A U10A U11C C12U C13U	1.23
U7A U10G U11C C13A	1.07
U7A U10G U11C C13U	1.05
U7A U10G U11C C13G	1.08
U7C G9A U10C U11A C12G C13U	1.18
U7C G9A U10C U11A C12G C13A	1.11
U7C G9A U10C U11A C12G C13G	1.39
U7C G9A C12G C13U	1.23
U7C G9A C12G C13A	1.18

Variant	aptazyme ON/OFF ratio
U7C G9A C12G C13G	1.2
U7C C12A C13G	1.1
U7C C12A C13U	1.19
U7C C12A C13A	1.16
U7C G9A U10G U11G C12A C13A	1.17
U7C G9A U10G U11G C12A C13G	1.09
U7C G9A U10G U11G C12A C13U	1.13
U7C G9A U11A C12A	1.38
U7C G9A U11A C12G	1.28
U7C G9A U11A C12U	1.19
U7A U11G C12A C13U	1.25
U7A U11G C12A C13A	1.15
U7A U11G C12A C13G	1.25
U7C G9A U10G U11G C13U	1.17
U7C G9A U10G U11G C13G	1.05
U7C G9A U10G U11G C13A	1.24
U7A U10G U11G	1.27
U7C G9A U10C U11C C12U C13G	1.04
U7C G9A U10C U11C C12U C13A	1.04
U7C G9A U10C U11C C12U C13U	1.07
U7C G9A U10A U11C C12G C13G	1.46
U7C G9A U10A U11C C12G C13A	1.27
U7C G9A U10A U11C C12G C13U	1.12
U7C G9A U10G C12G C13U	1.15

Variant	aptazyme ON/OFF ratio
U7C G9A U10G C12G C13G	1.1
U7C G9A U10G C12G C13A	1.14
U7A U11A C12A C13U	1.41
U7A U11A C12A C13A	1.3
U7A U11A C12A C13G	1.26
U7C G9A U10A U11C C12G	1.35
U7C G9A U10A U11C C12A	1.13
U7C G9A U10A U11C C12U	1.07
U7C G9A U10A U11A C12G	1.2
U7C G9A U10A U11A C12U	1.27
U7C G9A U10A U11A C12A	1.24
U7C G9A C12G	1.14
U7C G9A C12A	1.33
U7C G9A C12U	1.16
U7C G9A U10A C12A C13U	1.05
U7C G9A U10A C12A C13G	1.14
U7C G9A U10A C12A C13A	1.17
U7A U10G U11G C12U C13U	1.2
U7A U10G U11G C12U C13A	1.33
U7A U10G U11G C12U C13G	1.23
U7C G9A U10G U11C C12G C13U	1.11
U7C G9A U10G U11C C12G C13A	1.19
U7C G9A U10G U11C C12G C13G	1.34
U7C G9A U10A U11G C12A	1.02

Variant	aptazyme ON/OFF ratio
U7C G9A U10A U11G C12G	1.15
U7C G9A U10A U11G C12U	1.31
U7C G9A U10C U11C C12A	1.34
U7C G9A U10C U11C C12G	1.2
U7C G9A U10C U11C C12U	1.05
U7A U10G U11G C12U	1.28
U7A U10G U11G C12A	1.29
U7A U10G U11G C12G	1.45
U7C G9A U10A U11A C12A C13A	1.2
U7C G9A U10A U11A C12A C13U	1.29
U7C G9A U10A U11A C12A C13G	1.23
U7C G9A U10A C12G	1.18
U7C G9A U10A C12U	1.35
U7C G9A U10A C12A	1.15
U7C G9A U10A C13A	1.23
U7C G9A U10A C13U	1.34
U7C G9A U10A C13G	1.03
U7C G9A U10G U11A C12A C13U	1.16
U7C G9A U10G U11A C12A C13G	1.09
U7C G9A U10G U11A C12A C13A	1.17
U7C G9A U10C U11G C13A	1.19
U7C G9A U10C U11G C13G	1.22
U7C G9A U10C U11G C13U	1.45
